Assay results reported in patent US20220315909.

Sequence of Recombinant Mouse u-Plasminogen Activator/Urokinase (chain, as listed by the source): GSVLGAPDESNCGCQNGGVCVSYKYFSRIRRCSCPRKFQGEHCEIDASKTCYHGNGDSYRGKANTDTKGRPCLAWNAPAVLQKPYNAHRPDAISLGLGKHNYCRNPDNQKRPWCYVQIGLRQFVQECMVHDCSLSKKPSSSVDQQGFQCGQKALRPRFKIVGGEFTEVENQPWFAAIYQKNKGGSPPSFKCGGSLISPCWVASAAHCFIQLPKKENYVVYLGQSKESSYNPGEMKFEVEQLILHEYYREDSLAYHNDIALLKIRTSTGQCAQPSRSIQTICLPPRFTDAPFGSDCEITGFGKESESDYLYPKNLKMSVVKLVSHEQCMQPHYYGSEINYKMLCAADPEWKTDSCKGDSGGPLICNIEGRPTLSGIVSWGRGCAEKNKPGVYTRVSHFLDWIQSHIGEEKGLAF

Recombinant Mouse u-Plasminogen Activator/Urokinase
cleavage ratio (PAR) on peptide array, mouse uPA 1000 nM (SEQ ID NO 17202): also showed higher cleavage ratios for mouse uPA than the sequence shown as SEQ ID NO: 3 | cleavage ratio (PAR) on peptide array, mouse uPA 1000 nM (SEQ ID NO 17203): also showed higher cleavage ratios for mouse uPA than the sequence shown as SEQ ID NO: 3 | cleavage ratio (PAR) on peptide array, mouse uPA 1000 nM (SEQ ID NO 17994): also showed higher cleavage ratios for mouse uPA than the sequence shown as SEQ ID NO: 3 | cleavage ratio (PAR) on peptide array, mouse uPA 1000 nM (SEQ ID NO 17995): also showed higher cleavage ratios for mouse uPA than the sequence shown as SEQ ID NO: 3 | cleavage ratio (PAR) on peptide array, mouse uPA 1000 nM (SEQ ID NO 17996): also showed higher cleavage ratios for mouse uPA than the sequence shown as SEQ ID NO: 3 | cleavage ratio (PAR) on peptide array, mouse uPA 1000 nM (SEQ ID NO 17997): also showed higher cleavage ratios for mouse uPA than the sequence shown as SEQ ID NO: 3 | cleavage ratio (PAR) on peptide array, mouse uPA 1000 nM (SEQ ID NO 17998): also showed higher cleavage ratios for mouse uPA than the sequence shown as SEQ ID NO: 3 | cleavage ratio (PAR) on peptide array, mouse uPA 1000 nM (SEQ ID NO 17999): also showed higher cleavage ratios for mouse uPA than the sequence shown as SEQ ID NO: 3 | cleavage ratio (PAR) on peptide array, mouse uPA 1000 nM (SEQ ID NOs: 5-3204): showed higher cleavage ratios than the sequence shown as SEQ ID NO: 2 for all the cleavages by human uPA, human MT-SP1, and mouse uPA

Recombinant Human u-Plasminogen Activator/Urokinase
cleavage ratio (PAR) on peptide array, human uPA 1000 nM (SEQ ID NO 17994): showed higher cleavage ratios than the sequence shown as SEQ ID NO: 3 for both the cleavages by human uPA and human MT-SP1 | cleavage ratio (PAR) on peptide array, human uPA 1000 nM (SEQ ID NO 17995): showed higher cleavage ratios than the sequence shown as SEQ ID NO: 3 for both the cleavages by human uPA and human MT-SP1 | cleavage ratio (PAR) on peptide array, human uPA 1000 nM (SEQ ID NO 17996): showed higher cleavage ratios than the sequence shown as SEQ ID NO: 3 for both the cleavages by human uPA and human MT-SP1 | cleavage ratio (PAR) on peptide array, human uPA 1000 nM (SEQ ID NO 17997): showed higher cleavage ratios than the sequence shown as SEQ ID NO: 3 for both the cleavages by human uPA and human MT-SP1 | cleavage ratio (PAR) on peptide array, human uPA 1000 nM (SEQ ID NO 17998): showed higher cleavage ratios than the sequence shown as SEQ ID NO: 3 for both the cleavages by human uPA and human MT-SP1 | cleavage ratio (PAR) on peptide array, human uPA 1000 nM (SEQ ID NO 17999): showed higher cleavage ratios than the sequence shown as SEQ ID NO: 3 for both the cleavages by human uPA and human MT-SP1 | cleavage ratio (PAR) on peptide array, human uPA 1000 nM (SEQ ID NO 18000): showed higher cleavage ratios than the sequence shown as SEQ ID NO: 3 for both the cleavages by human uPA and human MT-SP1 | cleavage ratio (PAR) on peptide array, human uPA 1000 nM (SEQ ID NO 18001): showed higher cleavage ratios than the sequence shown as SEQ ID NO: 3 for both the cleavages by human uPA and human MT-SP1 | cleavage ratio (PAR) on peptide array, human uPA 1000 nM (SEQ ID NO 18002): showed higher cleavage ratios than the sequence shown as SEQ ID NO: 3 for both the cleavages by human uPA and human MT-SP1 | cleavage ratio (PAR) on peptide array, human uPA 1000 nM (SEQ ID NO 18003): showed higher cleavage ratios than the sequence shown as SEQ ID NO: 3 for both the cleavages by human uPA and human MT-SP1 | cleavage ratio (PAR) on peptide array, human uPA 1000 nM (SEQ ID NOs: 17202-17993): showed higher cleavage ratios than the sequence shown as SEQ ID NO: 3 for both the cleavages by human uPA and human MT-SP1 | cleavage ratio (PAR) on peptide array, human uPA 1000 nM (SEQ ID NOs: 5-17201): showed higher cleavage ratios than the sequence shown as SEQ ID NO: 2 for both the cleavages by human uPA and human MT-SP1
